# Target: soluble CD8αα (human)
# Test: SPR
row,Kd [µM],Substance
1,228,HLA-A*02:01-NLV monomer (WT) (from UniProt P61769 21-119) (peptide-MHC)
2,177,soluble MR1-β2m-Ac-6-FP monomer (WT) (from UniProt Q95460 23-292; P61769 21-119) (complex)

# From publication PMC9424912
